According to patent US20250051409A1, “MODULATORS OF PHOSPHATIDYLSERlNE DECARBOXYLASE AND USE THEREOF” (THE NATIONAL INSTITUTE FOR BIOTECHNOLOGY IN THE NEGEV LTD., priority 2021, published 2025):

What was measured:
[1] = target: T1, phosphatidylserine decarboxylase (PSD) (Homo sapiens, UniProt Q9UG56); experiment: PSD activity inhibition, DSB-3 method; assay type: biochemical; conditions: read-out: IC50 of SMAC inhibiting PSD activity
T1 construct: Purified recombinant protein (full length) of human phosphatidylserine decarboxylase (PSD); His tag (N); purchased Acris-OriGene; host or cells: E. coli
T1 sequence (Q9UG56 53-409): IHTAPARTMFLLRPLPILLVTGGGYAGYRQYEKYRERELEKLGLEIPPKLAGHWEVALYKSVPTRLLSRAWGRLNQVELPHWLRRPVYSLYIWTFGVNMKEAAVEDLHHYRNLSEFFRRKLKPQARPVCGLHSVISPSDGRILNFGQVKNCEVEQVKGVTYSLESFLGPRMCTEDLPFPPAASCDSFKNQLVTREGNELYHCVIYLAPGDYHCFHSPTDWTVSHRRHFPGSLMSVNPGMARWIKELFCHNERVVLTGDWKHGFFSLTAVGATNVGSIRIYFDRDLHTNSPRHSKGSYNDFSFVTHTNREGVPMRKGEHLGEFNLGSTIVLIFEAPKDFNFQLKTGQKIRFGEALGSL
Experimental: PE content in the lipid samples was measured as described previously (Choi J Y, et al. 2018. J Biol Chem 293, 1493-1503). Briefly, solvent was evaporated from the lipid samples under nitrogen gas, and samples were re-suspended in 0.8 mM Triton X-100. Sample aliquots were added to 96-well plates containing (50 μl) reaction mixture (80 mM NaCl, 2 mM K2HPO4, pH 7.4), and borate buffer (12.5 μl) (100 mM boric acid, 75 mM NaCl, 25 mM sodium tetraborate, pH 9). After mixing, 12.5 μl of 100 μM DSB-3, in 10 mM K2HPO4 (pH 7.4), were added and incubated for 2 h in the dark with shaking (100 rpm). Fluorescence was measured using excitation λex=403 nm and emission λem=508 nm. A calibration curve was obtained using PE (Biovision, CA) as a standard.
To determine PSD activity, purified enzyme (0.2-0.4 μM) or crude cell lysate (0.25-0.5 μg of protein) was incubated with PS (50 μM) for 45 min at 30° C. in the dark with shaking under the conditions described above for PE determination. PSD activity was measured by determining the PE produced as described above, except that the signal obtained in the absence of substrate PS (representing endogenous PE) was subtracted from the signal obtained in the presence of PS.
(§1) Human recombinant SMAC (10339-H08E) was produced by Sino Biologicals (Wayne, PA, USA). […]

[2] = target: T1, phosphatidylserine decarboxylase (PSD); experiment: MST interaction of purified SMAC with purified PSD; assay type: binding; conditions: SMAC 1 μM, PSD 78-625 nM, 30 min at 37° C., read-out: dissociation constant (Kd) of PSD interaction with SMAC
Experimental: (A) Representative IF images for SMAC and PSD colocalization in A549 cells. Scale bars represent 10, 2.5 μm, as indicated. (B) PLA assay showing direct interaction between SMAC and PSD in A549 cells (scale bar represent 10 μm). Immunoblot (C) and quantitative analysis cells (D) of PSD and SMAC expression levels relative to WI-38 (n=3). PSD activity (n=6) (E) and PE levels (n=6) (F) were analyzed in the indicated cell lines. (G) Purified PSD and SMAC used in this study. (H) PSD interaction with SMAC analyzed using the MST method (n=4). Purified SMAC was fluorescently labelled with the NanoTemper BLUE protein-labelling kit. SMAC (1 μM) was incubated with purified PISD (78-625 nM) for 30 min at 37° C., then thermophoresis was measured as described in the Materials and Methods section hereinbelow. […] (I) Inhibition of PSD activity by SMAC, as measured using the DSB-3 method (n=4). Results are the mean±SEM. *P≤0.05; **P≤0.01; ***P≤0.001; NS, nonsignificant.
as §1
MST analysis was performed using a NanoTemper Monolith NT.115 apparatus as described earlier (Wienken C J, et al., 2010. Nat Commun 1, 100). […] After a 30-min incubation, 8 μl of the samples were loaded into a glass capillary (Monolith NT Capillaries), and thermophoresis was analyzed (LED 20%, IR laser 20%).

IC50 [1]: 400 nM | Kd [2]: 246 nM
B1: SMAC: Human recombinant SMAC (10339-H08E) produced by Sino Biologicals (protein)
chain: AVPIAQKSEPHSLSSEALMRRAVSLVTDSTSTFLSQTTYALIEAITEYTKAVYTLTSLYRQYTSLLGKMNSEEEDEVWQVIIGARAEMTSKHQEYLKLETTWMTAVGLSEMAAEAAYQTGADQASITARNHIQLVKLQVEEVHQLSRKAETKLAEAQIEELRQKTQEEGEERAESEQEAYLRED
